A short description of series [1]: Efficacy in spontaneously obese cynomolgus monkeys, sc every three days for 49 days. To be noted: obese monkeys, 1, 3 and 10 nmol/kg sc every three days. The format is in vivo. On the procedure: FIGS. 10A-10B show In vivo efficacy in obese monkey. Naïve male spontaneously obese cynomolgus monkeys were injected every three days subcutaneously with designated protein MLC093 with different concentrations for 49 days.
Naïve male spontaneously obese cynomolgus monkeys with BMI>40 kg/m^2 were injected every three days subcutaneously with designated protein MLC093 for 49 days. Body weight was measured once a week and food intake was measured daily for each monkey. Six animals were used for vehicle or MLC093 1 nmol/kg treamment group and seven animals were used for MLC093 3 nmol/kg or MLC093 10 nmol/kg treamment group. Day 1 and Day 49 are first day and last day of molecule dosage. % BW loss=100*(BW on Day n-BW on Day 1)/(BW on Day 1). Cumulative food intake on Day n represents sum of food intake from Day 1 to Day n. Data are indicated as mean values and standard error (SEM) or pooled values.

Series [2] can be described thus: Body weight and food intake in C57BL/6 mice, fusion protein conjugates, 30 nmol/kg daily 10 days. In kind it is in vivo. The procedure, abridged: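 Male C57BL/6 mice received fusion protein conjugates by daily subcutaneous injection, with dosing running from Day 1 to Day 10. Body weight was recorded daily per animal and food intake daily per group. Body weight reduction was expressed relative to vehicle percent loss from Day 1. Cumulative food intake reduction was expressed as percent decrease versus vehicle.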

Series [3] can be described thus: Efficacy in DIO mice, daily sc 28 days. In kind it is in vivo, DIO male C57BL/6 mice. As to the method: FIGS. 6A-6E show In vivo efficacy in DIO mice. To evaluate the body weight, food intake and glucose effects of the fusion proteins, 17 week old DIO mice (C57BL/6 mice on high fat diet for 13 weeks) were dosed everyday subcutaneously with different concentrations of proteins for 28 days. […] FIGS. 6D and 6E show body weight change with dose titrations of MLC089 and MLC093 at 3, 10 and 30 nmol/kg. Data are expressed as mean values and standard error (SEM) for FIGS. 6A, 6C, 6D and 6E. n=5 for each treatment group. For FIG. 6B, a pooled food intake was measured for each treatment group.
17 week old DIO male C57BL/6 mice (˜45 g) were injected everyday subcutaneously with designated proteins (i.e., MLC089, MLC093) for 28 days. Food intake and body weight were measured daily and five animals were used for each treatment group. Fasting glucose was also monitored on designated days. Body weight and glucose were monitored for each individual animal, but food intake for each group animals was measured together. Day 1 and Day 28 are first day and last day of molecule dosage. % BW loss=100*(BW on Day n-BW on Day 1)/(BW on Day 1). Cumulative food intake on Day n represents sum of food intake from Day 1 to Day n. Terminal blood was collected and EDTA-2K plasma was prepared and frozen at −80 C for biomarker measurement. Liver was also collected and frozen in liquid nitrogen and store at −80 C. Data are indicated as mean values and standard error (SEM) or pooled values.

Series [4] in a line: Pharmacokinetic measurement in mouse, single sc dose 30 nmol/kg, plasma ELISA.
Method: Each fusion protein was injected subcutaneously into C57BL/6 mice (n=3/group) once and plasma samples were collected at designed time points and analyzed by ELISA method. Plasma concentrations are indicated as mean values and standard error (SEM).
6-8 week old male C57BL/6 mice were administrated in a single subcutaneous dose of 30 nmol/kg of the fusion protein conjugates or unconjugated fusion proteins (i.e., MLC002, MLC004, MLC005, MLC006, MLC007, MLC008, MLC009, MLC013, MLC017, MLC047, MLC074, MLC075, MLC089, MLC093, MLC003 and MLC019) (n=3/group). Plasma samples were collected pre-dose (−5 min), 0.5 hr, 1 hr, 2 hr, 4 hr, 6 hr, 8 hr, 12 hr, 24 hr, 48 hr and 72 hr after the injection. The concentrations of the fusion protein conjugates in the plasma were measured by an ELISA assay which has immunoreactivity towards both GDF15 and intact N-terminal of GLP-1. Based on the graph showing plasma concentration of each protein versus time after subcutaneous injection, the pharmacokinetic parameters (including Tmax, Cmax, T1/2, AUC) were calculated by WinNonlin software.

B1: MLC093: fusion polypeptide SEQ ID NO: 381 conjugated with Moiety B at 33C of Linker (conjugate)
chain: HGEGTFTSDVSSYLEEQAAKEFIAWLVRGGGGAQPGAQPGAQPGAQPGAQPGAQPGAQPGAQPCQEPGAQPGQEPGAQPGQEPGAQPGQEPGAQPGQEPGAQPGQEPGAQPARQGDHCPLGPGRCCRLHTVRASLEDLGWADWVLSPREVQVTMCIGACPSQFRAANLHAQIKTSLHRLKPDTVPAPCCVPASYNPMVLIQKTDTGVSLQTYDDLLAKDCHCI
modifications: Moiety B conjugated at linker Cys33
Regarding B1, in series [1], the body weight loss entry was “good efficacy on body weight loss and food intake suppression”; the food intake suppression result is “good efficacy on body weight loss and food intake suppression”. Moreover, in series [2], the “Body weight reduction at 30 nmol/kg (% reduction compared to vehicle)(Day11)” value came to 26.2% and the “Cumulative food intake reduction at 30 nmol/kg (% reduction compared to vehicle)(Day11)” value turned out to be 43.8%. For the same molecule, the “body weight reduction efficacy” value in series [3] (DIO mice, 30 nmol/kg daily 28 days, FIG. 6A) is “much better body weight reduction efficacy than Semaglutide and GDF15 derivative (MLC014)”. The “dose dependence of body weight reduction” value in series [3] (DIO mice, 3, 10 and 30 nmol/kg, FIGS. 6D and 6E) is on record as “dose dependent efficacy on body weight reduction”. For the same molecule, in series [3] (DIO mice, FIG. 6C), the fasting glucose entry is on record as “reached similar level to Semaglutide”. Further, the efficacy entry in series [3] (DIO study, FIG. 6) was “better efficacy than Semaglutide and GDF15 derivative (MLC014)”. Besides, the Cmax in series [4] (read-out: Cmax (nmol/L), single sc dose 30 nmol/kg) was 120 nmol/L. In series [4] (single sc dose 30 nmol/kg), the “AUC0-24 h” value worked out at 2163.7 nM·h, the “Terminal t1/2” value is 15.9 h and the “Tmax” value was 16.0 h.
